In the DeepSol protein solubility set:

Assay: soluble on expression in E. coli; label from the status in PepcDB or PDB records

Sequence	soluble on expression in E. coli
MSLQPVAKTEQPEGGILYDFGKETFGFITLKNLSGKGKIDLYYGESPEEAKDKAYCETLDKLLLEPGQITDLAIRSTSPLHHSDNEYTLENSKAFRYVYITHEPEVQIGEVSMQYEYLPEEYRGNFRCNDEELNCIWEVGAYTMHLTTREFFIDGIKRDRWVWSGDAIQSYLMNYYLFFDSESVKRTIWLLRGKDPVTSHSNTIMDYTFYWFLSVYDYYMYSGDRHFVNQLYPRMQTMMDYVLGRTNKNGMVEGMSGDWVFVDWADGYLDKKGELSFEQVLFCRSLETMALCADLVGDKDGQQKYEKLASALKAKLEPTFWNNQKQAFVHNCVDGRQSDAVTRYANMFSVFFDYLNADKQQAIKQSVLLNDEILKITTPYMRFYELEALCALGEQETVMKEMKAYWGGMLKAGATSFWEKYNPEESGTQHLAMYGRPYGKSLCHAWGASPIYLLGKYYLGVKPTKEGYKEFAVSPVLGGLKWMEGTVPTPNGDIHVYMDNKTIKVKATEGKGYLTIQSRRQPKANMGTVEKVSEGVWRLWIDSPEERIVTYRLEGHHHHHH	soluble
MSLQRSYCYQLTRRFCQSHEHTKLAKWLNINSKLNPFRPDPPVGGSPFLHGVGDEDKPVYIPQDVRVGHTFVVGTTRVGKTRLASILINQDIRNGDAVIVVDPKGDQDLVRDMVAACKVSGRTEDFKIVHLGFPEQSAQYNPLKKFDQISEVATRITDAISAEGEGKQFAAFAWKYVNIVAICLEEMNQPITYQTIAFYISRLEQLLMSYADNILPNHYLNYHQEIDDIIEEHDSKIGKNNKTKSPMERHQAVIQYIKDHINKTIKSNNAEALHDQILIDLYDAAIMDKHYYDKITASVGPVLSEINKSNASKILSSKAQPGDIELMDVIKNKKVLYIGLDSLTNPNIAQAVGKAFLSDLVSTAGKIYKEEGHHHHHH	soluble
MSLQTYSSSKRFNINVSQTIGRRIYMEDMVMIKGELFDGIDYIGVFDGHNGKDAAKKAMETFHKLLDEYLIKSDHYLEHLNHICNEIQQLISFTTASGTTASVIIIREDDVIFCYIGDSPIYIKSNEQVKKISIDHNTSNEEEVKRIINCGGSVVDINGTKRVNSKIVLTRSLGDKSLHPPLTNEPTIISIPLNEIDSIIVASDGISSISCELLNELTNPTFGLEQQAVNIRNIAYEKNSPDNISVVVIQITQPIISEGHHHHHH	soluble
MSLQVSKFKNLPKIELHLHLDCSLSYDVVKKIDPTVDIKHYKSSFQAGESCSSLKDYLKCADNAIELMQTKENLQFIVEDLFKQLHDDNVIYAEIRFAPLLHCEGDLNAKKVVDIICMSALIQSKKYNIDYGLILCTLRHYSEDESLKTVKLVKEFSEKGVVGFDIAADEAGYPIDNHIKAFTYAKNNNLNITAHAGEAKGSESIWETINKLYAKRIGHGVRCLEDKKLVKFLSDNNYHLEICLTSNIKTNTFDLFTDHPINEIYDSSISLSLNTDGRAISNTSLSKEYAIAHSELNWSMKKIIQSNLNAIEHAFTTNEKKEKLRKHLKSFSEGHHHHHH	soluble
MSLQVSQYLYQNAQSIWGDCISHPFVQGIGRGTLERDKFRFYIIQDYLFLLEYAKVFALGVVKACDEAVMREFSNAIQDILNNEMSIHNHYIRELQITQKELQNACPTLANKSYTSYMLAEGFKGSIKEVAVAVLACGWSYLVIAQNLSQIPNALEDAFYGHWIKGYSSKEFQACVTWNINLLDSLALASSKQEIEKLKEIFIATSEYEYQFWDMAYQSEGGSHHHHHH	soluble
MSLQYESHSQLIIKSSDGGSSFDPSSLLMAAGVSGASGGTESQLVEAYIQSADMIKYLDETIGLREHYMSDKADMFSGLSSSHKQEDFYKFYLDHIEVSVDSASSVISLRTRAFDAEYAKIINQAIVDKAEEFINNINNDLAKSKLTFAKGEHEIVEQKLQQAKTEILSFQSKYNVLDPSAEGAAFQQIAFSLQATLAQKKAELSTMSTMMSNVAPEVINIKREIAALQKEVEKQKERISTAEGESEALSVSELMAQYSNLQVQLQLAIQAYSSSLITLENARVEAYQKLQHLVTVESPTLPDDNAYPTEGHHHHHH	soluble
MSLRDGKHIRTKLTPQKDRGESSYRIGLYIRDSAAGIGTMTFVHPDSMKYGALGHVISDNDTKKPIQVEDGQIMRSTVTSIERGSHGNPGEKLARFSPDREVIGNITINSPFGIFGKLNTNMTNGVMDKAMPIALSHQVKEGPAKILTVIDQDKVEAFDIEVVSTVPQKFPATKGMVIKVTDKRLLAKTGGIVQGMSGSPIVQNGKVIGAVTHVFVNDPTSGYGVHIEWMLHEAGINIYDQERKASEGHHHHHH	soluble
MSLRDHGAPYGAHTLAYRPSGELLLVRHEGVDMWVLPGGELDRGESFQEAALRELGEESGIEATIEGLGMLGRVEFYCDGNMAWGVLPVYEAQAETTDIAVDDPDHEISEAQWFDKLPADTRDREEILQWRGQRFSGREGHHHHHH	soluble
MSLREEIKVAVLRMEGTNCEDETVKAFRSLGVEAEAVHIKQFYSDMIRFEEQRSVFDYQCLVFPGGFSAGDYIRAGAIFSARVKSVLRKDIEEFIKMGYPILGICNGFQVLVELGALPGFDEDKPLAEKPEMALAMNDSSRFECRPTLLKKESEKCIFVKNLKKDVVMFPVAHAEGKVVFPSGKEDEYLERLTSNDQIVFRYVDEKGDYAGYPWNPNGSFYNIAGICNATHTVFGLMPHPERAFFGYQVGRREGYGDGYCIFRSVVDYLEEGHHHHHH	not soluble
MSLRESCKKDLSAGESIRKTRRISVMRSASGNETFGVICRTLYGDFIQFSTKQIVVMSTLFRSLSMSSSAGDSNLFTGNSALKNDSVVAGKPEWAQNSRRRVIPSHLAPKKKTGFHLSSSVSTRKSGGDKKDVFQAENGGEFNLLSFGTNQKRLGTGSFDRVNANSSFFDTSFAGDLTRFDDAVNSSKTQDDFLVYTNDEDMPPSRSIYDLNDEVLISLKSLQNNNEDKTSDANDPKNFRNIFVRDAPKASPSEDSNDQAKQLSNGELAILVFGYPETMANQVIAYFQEFGTILEDFEVLRKPQAMTVGLQDKQFVPIFSGNSWTKITYDNPASAVDALLENGAVFNGVLLGVIPYTKDAVERLQKRKLTSSEDIGSGITTAAAEGHHHHHH	soluble
MSLRFVDDEGHYNVSFFHVNDVHAHLDQFASSGTSCDDPEKGCYGGYARIKTKVTELREQYPDNLWLNAGDEFQGTLFYTYYGGEKIAETLNELKFDAMTLGNHEWDGGDEALGQFLLNLTFPIVSCNVKSEVESLNETIKNYHIFEEHEIAVIGATTTTTPGISSVGNTTTFLDPVAEVQKAVWQIRNETEVNRIILLSHLGYEEDQDLAAKTEGISLIIGGHSHTLLGDMEDAKGDYPTMVEDLNGHEVFIVTAYRWGEYLGAIDLTFDDDGHALAYHGAPIHMDNSTSLDEELDTKIQGWAEAFADFAAEVLGETDAVLVQETCQEGDCLLGQVMADAMYEYRYNQTEGTDDEPALALINSGGVRAEINEGPITRGEVLTAFPFGNAIVELEFSGADLRKILEGAVSYVNQFNGDEITSWFQVSRGVRIEFNPDNEPGDRLVNVTIQGEAIDDERDYRVVTLDFLAGGGDSIFVATDDFITLDTQDEVLTQYIVARTPLSPELEERVVENDGEGHHHHHH	soluble
MSLRIFKHQGCSAVKIRSTALVKGFRQSAPYVNAHRGKTMVVMLGGEAIADKNFPNIISDIALLHSLGVKVVLVHGARPQINQILEKNQRDTPYHKGVRITDESSLGLVMQAAGQLQHAITARLSMSLNNTPMAGTQLNVVSGNFIISQPLGIDEGVDYCHSGRIRRIDVEGINRMLDLGSIVLLGPIASSVTGECFNLLSEEVATQVAIKLKADKLIGFCPQQGIIDTKGNAIAELFPSDVERLVKSMEQECAPDDEECFSTMRFLRAALKACRAGVPRSHLVSYKEDGALIQELFSFDGIGTQIVMASAEQIRQATIDDIGGIFDLIRPLEEQGILVRRSREQLEQEIHKFTIIDKDGLVIGCSALYPYPEERMAEMACVAIHPEYRDGHRGLHLLVHSKHQAKQMGIRHLFVLTTHSTHWFREQGFNEVDVEALPMAKKSLYNYQRRSKILMLQLEGHHHHHH	not soluble
MSLRILAIDTATEACSVALWNNGTINAHFELCPREHTQRILPMVQEILAASGASLNEIDALAFGRGPGSFTGVRIGIGIAQGLALGANLPMIGVSTLATMAQGAWRKTGATRVLAAIDARMGEVYWAEYQRDAQGVWQGEETEAVLKPERVGERLKQLSGEWATVGTGWSAWPDLAKECGLTLHDGEVSLPAAEDMLPIASQKLAAGETVAVEHAEPVYLRNEVAWKKLPGKEEGHHHHHH	soluble
